Assay: yeast display, Sf9 membrane polyspecificity reagent, FACS + sequencing; frameworks hold sequencing errors
In short: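 Nanobodies from a synthetic yeast display library (Saccharomyces cerevisiae BJ5465), induced 36–48 hours with galactose, were stained 1 hour at 4 °C with 10% biotinylated, detergent-solubilized Sf9 membrane reagent, enriched on streptavidin microbeads, then FACS-sorted. Anti-HA (expression) and streptavidin (reagent binding) fluorescence set low and high (top ~1%) gates. Polyreactivity labels come from the gate of origin. Genes were colony-PCR amplified, MiSeq 2 × 250 sequenced and filtered by CDR length.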

Row | Sequence | polyreactivity (PSR sort gate)
1 | QVQLVESGGGLVQAGGSLRLSCAASGRIFISYTMGWYRQAPGKDRELVAGIDSSGTSTYYADSVKGRFTISRDNAKNTVYLQMNSLKPEDTAVYYCNVDGNWKDTSTELDYWGQGTQVTVSS | low polyreactivity
2 | QVQLVESGGGLVQAGGSLRLSCAASGRIFIVNAMGWYRQAPGKERELVAAISYRGGSTYYADSVKGRFTISRDNAKNTVYLQMNSLKPEDTAVYYCNKDSTGDGYDYWGQGTQVTVSS | low polyreactivity
3 | QVQLVESGGGLVQAGGSLRLSCAASGRIFIYNAMGWSRQAPGKEREFVAAISSSGGSTYYADSVKGRFTISRDNAKNTVYLQMNSLKPEDTAVYYCAAGGWPYSGGWFFQPNYDYWGQGTQVTVSS | low polyreactivity
4 | QVQLVESGGGLVQAGGSLRLSCAASGRIFKDYAMGWYRQAPGKEREFVARISSRGGRTYYADSVKGRFTISRDNAKNTVYLQMNSLKPEDTAVYYCAVTTSPYRPTKFDYWGQGTQVTVSS | high polyreactivity
5 | QVQLVESGGGLVQAGGSLRLSCAASGRIFKGYAMGWYRQAPGKERELVASISKRGVSTYYADSVKGRFTISRDNAKNTVYLQMNSLKPEDTAVYYCNARAPGYYYTRYDYWGQGTQVTVSS | high polyreactivity
6 | QVQLVESGGGLVQAGGSLRLSCAASGRIFKINAMGWYRQAPGKERELVAAITRSGGTTYYADSVKGRFTISRDNAKNTVYLQMNSLKPEDTAVDYCARAYSLRVVTGDYWGQGTQVTVSS | high polyreactivity
7 | QVQLVESGGGLVQAGGSLRLSCAASGRIFKIYAMGWYRQAPGKEREFVATISSGGRTNYADSVKGRFTISRDNAKNTVYLQMNSLKPEDTAVYYCNAGARVLYETESFDYWGQGIQVTVSS | low polyreactivity
8 | QVQLVESGGGLVQAGGSLRLSCAASGRIFKIYAMGWYRQAPGKERELVAAISGRGGSTYYADSVKGRFTISRDNAKNTVYLQMNSLKPEDTAVYYCAAVGYGFSAYSTYDYWGQGTQVTVSS | high polyreactivity
9 | QVQLVESGGGLVQAGGSLRLSCAASGRIFKKNAMGWYRQAPGKERELVAAIRGSGDSTFYADSVKGRFTISRDNAKNTVYLQMNSLKPEDTAVYYCAAGDVPRRIYLVYVGYLLDYWGQGTQVTVSS | low polyreactivity
10 | QVQLVESGGGLVQAGGSLRLSCAASGRIFKKNAMGWYRQAPGKERELVAAISARGGSTYYADSVKGRFTISRDNAKNTVYLQMNSLKPEDTAVYYCAADEVDESIHYYTFDYWGQGTQVTVSS | high polyreactivity
11 | QVQLVESGGGLVQAGGSLRLSCAASGRIFKKNAMGWYRQAPGKERELVASITRGASTNYADSVKGRFTISRDNAKNTVYLQMNSLKPEDTAVYYCAAVITLNGDGPPSDYWGQGTQVTVSS | low polyreactivity
12 | QVQLVESGGGLVQAGGSLRLSCAASGRIFKKYAMGWYRQAPGKERELVATISSGGSTYYADSVKGRFTISRDNSKNTVYLQMNSLKPEDTAVYYCARREYVRRDYFVTTYDYWGQGTQVTVSS | low polyreactivity
13 | QVQLVESGGGLVQAGGSLRLSCAASGRIFKLNAMGWYRQAPGKERELVAAITRGGRTYYADSVKGRFTISRDNAKNTVYLQMNSLKPEDTAVYYCNKKTYQQTYKYDYWGQGTQVTVSS | high polyreactivity
14 | QVQLVESGGGLVQAGGSLRLSCAASGRIFKLYAMGWYRQEPGKVRELVASITWGGGSTNYADSVKGRFTISRDNAKNTVYLQMNSLKQEDTAVYYCAAVYSKFAVFWEYDYWGQGTQVTVSS | low polyreactivity
15 | QVQLVESGGGLVQAGGSLRLSCAASGRIFKNYAMGWYRQAPGKERELVAAISWSGGRTYYADSVKGRFTISRDNAKNTVYLQMNSLKPEDTAVYYCAASIRTGYRYGYWGQGTQVTVSS | high polyreactivity
16 | QVQLVESGGGLVQAGGSLRLSCAASGRIFKQYTMGWYRQAPGKERELVAAITSSGAGTFYADSVKGRFTISRDNAKNTVYLQMNSLKPEDTAVYYCAASWSRRDRGFDYWGQGTQVTVSS | high polyreactivity
17 | QVQLVESGGGLVQAGGSLRLSCAASGRIFKRNAMGWYRQAPGKERELVAAINWSGGSTYYADSVKGRFTISRDNAKNTVYLQMNSLKPEDTAVYYCAALRVQGDYDYWGQGTQVTVSS | high polyreactivity
18 | QVQLVESGGGLVQAGGSLRLSCAASGRIFKRYAMGWYRQAPGKERELVAAITRSGGSMYYADSVKGRFTISRDNAKNTVYLQMNSLKPEDTAVYYCNKVYGPHPERAVYYEGDYWGQGTQVTVSS | high polyreactivity
19 | QVQLVESGGGLVQAGGSLRLSCAASGRIFKRYDMGWYRQAPGKERELVAAITGTGGSTYYADSVKGRFTISRDNAKNTVYLQMNSLKPEDTAVYYCAARLYNTYSGFAFGYWGQGTQVTVSS | high polyreactivity
20 | QVQLVESGGGLVQAGGSLRLSCAASGRIFKRYDMGWYRQAPWKERELVAAITGTGGSTYYADSVKGRFTISRDNAKNTVYLQMNSLKPEDTAVYYCAARLYNTYSGFAFGYWGQGTQVTVSS | high polyreactivity
21 | QVQLVESGGGLVQAGGSLRLSCAASGRIFKSYAMGWYRQAPGKERELVASISYTGGSTYYADSVKGRFTISRDNAKNTVYLQMNSLKPEDTAVYYCAAKRVRSAGSYGYWGQGTQVTVSS | low polyreactivity
22 | QVQLVESGGGLVQAGGSLRLSCAASGRIFKVYAMGWYRQAPGKERELVASIRWNTGSTYYADSVKGRFTISRDNAKNTVYLQMNSLKPEDTAVYYCNARGYYQGRYGYWGQGTQVTVSS | high polyreactivity

Row | Sequence | polyreactivity (PSR sort gate)
23 | QVQLVESGGGLVQAGGSLRLSCAASGRIFKVYAMGWYRQAPGKERELVAVINGGGSTNYADSVKGRFTISRDNAKNTVYLQMNSLKPEDTAVYYCATEGYGHGGETDGGVYSDLGYWGQGTQVTVSS | low polyreactivity
24 | QVQLVESGGGLVQAGGSLRLSCAASGRIFKWYAMGWYRQAPGKERELVAVITVSGGSTTYADSVKGRFTISLDNAKNTVYLQMNSLKQEDTAVYYCNAVYYRSRFGTSIRYDYWGQGTQVTVSS | high polyreactivity
25 | QVQLVESGGGLVQAGGSLRLSCAASGRIFKYYAMGWYRQAPGKERELVAAITRGGSTNYADSVKGRFTISRDNASNTVYLQMTSLKPEDTAVYYCAVVTVRNHRMDYWGQGTQVTVSS | low polyreactivity
26 | QVQLVESGGGLVQAGGSLRLSCAASGRIFKYYAMGWYRQAPGKERELVAAITSGGSTYYADSVKGRFTISRDNAKNTVYLQMNSLKPEDTAVYYCNADGYLSYAFDYWGQGTQVTVSS | low polyreactivity
27 | QVQLVESGGGLVQAGGSLRLSCAASGRIFKYYAMGWYRQAPGKERELVARISSSGGSTYYADSVKGRFTISRDNAKNTVYLQMNSLKPEDTAVYYCNARYYSTKYFLGDYWGQGTQVTVSS | high polyreactivity
28 | QVQLVESGGGLVQAGGSLRLSCAASGRIFKYYAMGWYRQAPGTERELVAAITSGGSTYYADSVKGRFTISRDNAKNTVYLQMNSLKPEDTAVYYCNADGYLSYAFDYWGQGTQVTVSS | low polyreactivity
29 | QVQLVESGGGLVQAGGSLRLSCAASGRIFKYYGMGWYRQAPGKERELVAAITRGDSTNYADSVKGRFTISRDNAKNTVYLQMNSLKPEDTAVYYCNVGTRRGYDYWGQGTQVTVSS | high polyreactivity
30 | QVQLVESGGGLVQAGGSLRLSCAASGRIFKYYTMGWYRQAPGKERELVARISSSGGSTYYADSVKGRFTISRDNAKNTVYLQMNSLKPEDTAVYYCNTRAAYHQTTHKYERDYWGQGSQVTVSS | low polyreactivity
31 | QVQLVESGGGLVQAGGSLRLSCAASGRIFLFYAMGWYRQAPGKERELVAAISSTDDTYYADSVKGRFTISRDNAKNTVYLQMNSLKPEDTAVYYSAAYSIISQSEMYYRGQGTQVTVSS | low polyreactivity
32 | QVQLVESGGGLVQAGGSLRLSCAASGRIFLFYAMGWYRQAPGKERELVAGIRSGGSTNYADSVKGRFTISRDNAKNTVYLQMNSLKPEDTAVYYCAAASYFVYPRLEGYWGQGTQVTVSS | low polyreactivity
33 | QVQLVESGGGLVQAGGSLRLSCAASGRIFLGNAMGWYRQAPGKERELVAAIDASGGSTYYADSVKGRFTISRDNAKNTVYLQMNSLKPEDTAVYYCAADRGFLRSFAPGNMDYWGQGTQVTVSS | low polyreactivity
34 | QVQLVESGGGLVQAGGSLRLSCAASGRIFLGNAMGWYRQAPWKESELVAAITNGGGSTSYADSVKGRFTISRDNAKNTVYLQMNSLKPEDTAVYYCARGYKKSVQRFEYRGQGTQVTVSS | high polyreactivity
35 | QVQLVESGGGLVQAGGSLRLSCAASGRIFLGNTMGCYRQAPGKERELVAAISKRGGSTYYVDSVKGRFTISRDNAKNTVYLQMNSLKPEDTAVYYCNAGPLYSGVYSGYYWGQGTQVTVSS | high polyreactivity
36 | QVQLVESGGGLVQAGGSLRLSCAASGRIFLGNVMGWYRQAPGKERELVAAISWSGGSTYADSVKGRFTISRDNAKNTVYLQMNSLKPEDTAVYYCNAELGSYDKDYDYWGQGTQVTVSS | low polyreactivity
37 | QVQLVESGGGLVQAGGSLRLSCAASGRIFLGYAMGRYRQAPGKERELVAAITFSGGSTYYADSVKGRFTISRDNAKNTVYLQMNSLKPEDTAVYYCAAPRLRRTYPRNRYDYWGQGTQVTVSS | low polyreactivity
38 | QVQLVESGGGLVQAGGSLRLSCAASGRIFLGYAMGWYRQPPGKVSELVAAINSVASTNYADSVKGRFTISRDNAKNTVYLQMNSLKPEDTAVYYCAAVYFLVQSDLPAYDYWGQGTLVTVSS | low polyreactivity
39 | QVQLVESGGGLVQAGGSLRLSCAASGRIFLKYAMGWYRHAPGKERELVAAISLSTGSTYYADSVKGRFTISRDNAKNTVYLQMNSLKAEDTAVYYCAATRKYRYVYWGQGTQGTVSS | high polyreactivity
40 | QVQLVESGGGLVQAGGSLRLSCAASGRIFLKYTMGWYRQAPGKERELVAAISRGGSTYYADSVKGRFTISRDNAKNTVYLQMNSLKPEDTAVYYCAARRSRPTYYSTGVNYWGQGTQVTVSS | high polyreactivity
41 | QVQLVESGGGLVQAGGSLRLSCAASGRIFLPYAMGWYRQAPGKERELVAAIDTNGGSTYYADSVKGRFTISRDNAKNTVYLQMNSLKPEDSAVYYCAAEVYDYTYVVTFLYDYWGQGTQVTVSS | high polyreactivity
42 | QVQLVESGGGLVQAGGSLRLSCAASGRIFLPYAMGWYRQAPGKERELVAAITQSGVITSYADSVKGRFTISRDNAKNTVYLQMNSLKPVDTAVYYCATVRTVIVFRFPYSYGYWGQGTQVTVSS | high polyreactivity
43 | QVQLVESGGGLVQAGGSLRLSCAASGRIFLRNAMGWYRQAPGKERELVAAISRRGATTYYADSVKGRFTISRDNAKNTVYLQMNSLKPEDTAVYYCAKRVWETDYDYWGQGTQVTVSS | high polyreactivity

Source: the nanobody polyreactivity screen of Harvey et al. (2022)
